The first test concerns the target rFN12-14 (recombinant fibronectin type III repeats 12 to 14). Nature of the test: SPR; Biacore T200, C1 sensor chip; rFN12-14 immobilised (~870 RU); rF-, rFG-repeat or multiple repeats in HBS-EP injected at 40 μl/min; double referencing.
Take “r2F-repeats (recombinant Embp fragment, aa 2569 to 2908) (domain or fragment)”: the Kd amounted to 10 µM.
Turning to “r2FG-repeats (recombinant Embp fragment, aa 6777 to 7028) (domain or fragment)”, the Kd turned out to be 0.5 µM.
On to “r4F-repeats (recombinant Embp fragment, aa 2569 to 3248) (domain or fragment)”, for which the Kd is 20 µM.
For the substance “rF-repeat (recombinant first F-repeat of Embp, aa 2569 to 2738) (domain or fragment)”, the Kd is 29 µM.
On the same count and under the same terms, with “rFG-repeat (recombinant 19th FG-repeat of Embp, aa 6777 to 6902) (domain or fragment)” the figure was 0.13 µM.

The next test concerns the target fibronectin (full-length human Fn, Sigma-Aldrich) (human) (UniProt P02751). Nature of the test: SPR; Biacore T200, C1 sensor chip, 25°C, HBS-EP (10 mM HEPES pH 7.4, 150 mM NaCl, 3 mM EDTA, 0.005% Surfactant P20); Fn immobilised by amine coupling (~1,000 RU); rF- and rFG-repeats injected at 40 μl/min.
“rF-repeat (recombinant first F-repeat of Embp, aa 2569 to 2738)”: the Kd is 4 µM.
Turning to “rFG-repeat (recombinant 19th FG-repeat of Embp, aa 6777 to 6902) (domain or fragment)”, the Kd worked out at 0.0016 µM.

Source of the values: paper PMC7587433.
